According to patent publication US8815803B2, “Method for increasing body height comprising systemic administration of CNP-53” (priority 2004, dated 2014):
Where “and” joins values, the source holds several entries; their conditions need not be identical. Equal values may be shown once. Entries after “also recorded” stand apart in the source; their conditions may differ.

Assays:
Assay type in all cases: in vivo
[1] = CNP expression in CNP transgenic mouse: CNP-22 EIA, liver
Description: (§1) A CNP-22 EIA measuring kit (PHOENIX PHARMACEUTICALS INC.) was used for the determination of a CNP level.
(§2) Three each of 7-week old male and female CNP transgenic mice, as well as 3 each of male and female normal litter of mice, were euthanized by exsanguination from the postcava under ether anesthesia.
The liver was homogenized in a Waring blender (Physcotron), and after centrifugation (at 2,000 rpm for 5 minutes), the supernatant was used as a sample for the determination of CNP-22 levels.

[2] = CNP expression in CNP transgenic mouse: CNP-22 EIA, blood plasma
Description: as §1, §2
One mg of ethylenediaminetetraacetate-4Na (Junsei Chemical Co., Ltd., Japan) and 2 trypsin-inhibition units of aprotinin (Sigma) were added to the drawn blood and agitated to separate blood plasma, which was used as a sample for the determination of CNP-22 levels.

[3] = test system: growth cartilage of femora; assay: Histological analysis of the growth cartilage of CNP transgenic mouse; details: 9-week old female CNP transgenic mice, patellar surface femur
From the text: For the purpose of analyzing the thickness of the growth cartilage histologically, 5 each of 9-week old female CNP transgenic mice and female normal litter of mice were euthanized by exsanguination from the postcava under ether anesthesia, and the thigh bone was fixed in 20% formalin for a week. After soaking in a 20% aqueous solution of EDTA-4Na (pH 7.4) (Junsei Chemical Co., Ltd., Japan) for decalcification, the patellar surface femur was subjected to a midline sagittal section and embedded in paraffin by conventional method to prepare a paraffin block. A 4 μm-thick section was further sectioned with a microtome to prepare paraffin sections, which were stained with hematoxylin and eosin. For the thickness of the growth cartilage, one microscopic field observed using an objective lens (×10) was incorporated into an image analysis software (IPAP, Sumika Technoservice, Japan), and each thickness of the resting layer, proliferating layer and hypertrophic layer was measured at 5 points in the microscopic field using the same software, and the calculated mean value thereof was taken as the thickness of each layer of the individual. The total of the three layers was regarded as the thickness of the growth cartilage of the individual. […]

mice = assay: Growth curve of CNP transgenic mouse (naso-anal length)
Description: The naso-anal lengths (in cm) of female and male CNP transgenic mice, as well as those of female and male normal littermates, were measured on time over a period of 2 to 9 weeks (FIG. 4).

[4] = 7-week old CNP transgenic mice, individual animal, CNP-22 EIA
[5] = CNP transgenic mouse vs wild type, means compared

## CNP: C-type natriuretic peptide, a GC-B activator, overexpressed from murine CNP cDNA transgene in mice; measured with CNP-22 EIA kit
[1]; [4]
  CNP level, Liver: 370.0 ng/g tissue and 206.7 ng/g tissue and 293.3 ng/g tissue
[1]; 7-week old CNP transgenic mice, mean ± SD of No. 1-3, p < 0.01 vs wild type
  CNP level, Liver, mean ± SD: 290 ± 81.7 ng/g tissue
[1]; [5]
  CNP level in the liver, higher than the wild type: about 10 fold
[2]; [4]
  CNP level, Plasma: 11.1 ng/mL and 2.6 ng/mL and 10.3 ng/mL
[2]; 7-week old CNP transgenic mice, mean ± SD of No. 1-3
  CNP level, Plasma, mean ± SD: 8.0 ± 4.7 ng/mL
[2]; [5]
  CNP level in blood plasma, higher than the wild type: about 24 fold
[3]
  thickness of resting layer, proliferating layer, hypertrophic layer and total thickness of growth cartilage vs wild type: greater with statistical significance; also recorded: significantly greater
mice; female CNP transgenic mice, at 2 weeks old and thereafter
  naso-anal length vs normal litter (WT): significantly greater
mice; female and male CNP transgenic mice, over a period of 2 to 9 weeks
  naso-anal length vs normal littermates: greater than those of the normal littermates; also recorded: greater than those of the normal litter
mice; male CNP transgenic mice, at 4 weeks old and thereafter
  naso-anal length vs normal litter (WT): significantly greater
